From patent publication US20170224836A1 (Novartis, published 2017) come the findings set out here.

The labels stand for the following.
T1: human CDH6 on cells (human, UniProt P55285 54-790)
T1 sequence: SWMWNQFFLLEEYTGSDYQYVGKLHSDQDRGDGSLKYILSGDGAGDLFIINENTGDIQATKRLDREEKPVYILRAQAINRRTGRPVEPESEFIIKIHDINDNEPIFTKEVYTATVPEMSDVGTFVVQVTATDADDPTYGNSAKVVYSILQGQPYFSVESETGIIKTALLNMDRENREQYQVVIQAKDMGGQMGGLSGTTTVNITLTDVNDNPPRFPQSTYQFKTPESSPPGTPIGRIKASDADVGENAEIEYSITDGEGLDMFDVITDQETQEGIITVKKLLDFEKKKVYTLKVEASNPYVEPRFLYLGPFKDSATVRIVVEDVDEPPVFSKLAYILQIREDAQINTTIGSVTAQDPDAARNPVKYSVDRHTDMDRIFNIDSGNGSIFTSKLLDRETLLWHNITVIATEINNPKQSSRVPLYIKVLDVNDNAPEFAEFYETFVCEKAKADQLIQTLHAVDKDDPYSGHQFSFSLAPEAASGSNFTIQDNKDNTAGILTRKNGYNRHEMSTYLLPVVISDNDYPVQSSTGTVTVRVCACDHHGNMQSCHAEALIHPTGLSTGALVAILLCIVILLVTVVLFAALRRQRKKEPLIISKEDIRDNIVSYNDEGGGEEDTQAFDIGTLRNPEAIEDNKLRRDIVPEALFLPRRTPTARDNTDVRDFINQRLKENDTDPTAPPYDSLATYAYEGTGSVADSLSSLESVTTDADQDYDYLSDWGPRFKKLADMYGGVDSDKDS

B1: NOV0705-SMCC-DM1 (antibody, human IgG1, lambda, V domains shown)
VH: QVQLVQSGAEVKKPGESLKISCKGSGYSFTNYWIGWVRQMPGKGLEWMGFIDPGVSYTRYSPSFQGQVTISADKSISTAYLQWSSLKASDTAMYYCARVLAHSTEYNWPAFWGQGTLVTVSS
VL: DIVLTQPPSVSGAPGQRVTISCSGSSSNIGLDYVNWYQQLPGTAPKLLIYRNKQRPSGVPDRFSGSKSGTSASLAITGLQAEDEADYYCQAWAGRTNYVVFGGGTKLTVLG
modifications: SMCC-DM1 on primary amines, sites not stated
B2: NOV0685-SMCC-DM1 (antibody, human IgG1, lambda, V domains shown)
VH: QVQLQQSGPGLVKPSQTLSLTCAISGDSVSGNSAAWNWIRQSPSRGLEWLGIIYYRSKWYNDYAVSVKSRITINPDTSKNQFSLQLNSVTPEDTAVYYCARSSYSGGFDYWGQGTLVTVSS
VL: DIVLTQPPSVSGAPGQRVTISCSGSSSNIGSYYVSWYQQLPGTAPKLLIYYNTKRPSGVPDRFSGSKSGTSASLAITGLQAEDEADYYCQSWDKLGKGYVFGGGTKLTVLG
modifications: SMCC-DM1 on primary amines, sites not stated
B3: NOV0689-SMCC-DM1 (antibody, human IgG1, lambda, V domains shown)
VH: QVQLLESGGGLVQPGGSLRLSCAASGFTFSSFAMNWVRQAPGKGLEWVSVISSSGSNTNYADSVKGRFTISRDNSKNTLYLQMNSLRAEDTAVYYCARPSYFQAMDYWGQGTLVTVSS
VL: DIVLTQPPSVSGAPGQRVTISCSGSSSNIGSNFVSWYQQLPGTAPKLLIYDNSNRPSGVPDRFSGSKSGTSASLAITGLQAEDEADYYCSSYDSFDHSWVFGGGTKLTVLG
modifications: SMCC-DM1 on primary amines, sites not stated
B4: NOV0682-SMCC-DM1 (antibody, human IgG1, kappa, V domains shown)
VH: QVQLVESGGGLVKPGGSLRLSCAASGFTFSSYAISWVRQAPGKGLEWVGFIKSNADGYTTNYAAPVKGRFTISRDDSKNTLYLQMNSLKTEDTAVYYCARIRYFRNWDYWGQGTLVTVSS
VL: DIQMTQSPSSLSASVGDRVTITCRASQTINSYLNWYQQKPGKAPKLLIYRASNLQSGVPSRFSGSGSGTDFTLTISSLQPEDFATYYCQQGDSSWTFGQGTKVEIKR
modifications: SMCC-DM1 on primary amines, sites not stated
B5: NOV0674-SMCC-DM1 (antibody, human IgG1, lambda, V domains shown)
VH: QVQLLESGGGLVQPGGSLRLSCAASGFTFSSYAMTWVRQAPGKGLEWVSGISGGGSNTYYADSVKGRFTISRDNSKNTLYLQMNSLRAEDTAVYYCARGGGQYFDYWGQGTLVTVSS
VL: DIVLTQPPSVSGAPGQRVTISCSGSSSNIGYNYVSWYQQLPGTAPKLLIYRDNQRPSGVPDRFSGSKSGTSASLAITGLQAEDEADYYCAAWTSGSIGWVFGGGTKLTVLG
modifications: SMCC-DM1 on primary amines, sites not stated
B6: NOV0670-SMCC-DM1 (antibody, human IgG1, lambda, V domains shown)
VH: QVQLVQSGAEVKKPGSSVKVSCKASGGTFSSYAISWVRQAPGQGLEWMGGIIPIFGTANYAQKFQGRVTITADESTSTAYMELSSLRSEDTAVYYCARKFPGRGPFAYWGQGTLVTVSS
VL: DIVLTQPPSVSGAPGQRVTISCSGSSSNIGSQYVYWYQQLPGTAPKLLIYYNSERPSGMPDRFSGSKSGTSASLAITGLQAEDEADYYCQTWDASSQSFVFGGGTKLTVLG
modifications: SMCC-DM1 on primary amines, sites not stated
B7: NOV0672-SMCC-DM1 (antibody, human IgG1, lambda, V domains shown)
VH: QVQLLESGGGLVQPGGSLRLSCAASGFTFNTYGIHWVRQAPGKGLEWVSYIHYSGSSTYYADSVKGRFTISRDNSKNTLYLQMNSLRAEDTAVYYCARHAYGYMDFWGQGTLVTVSS
VL: DIALTQPASVSGSPGQSITISCTGTSSDVGAYNYVSWYQQHPGKAPKLMIYGVSKRPSGVSNRFSGSKSGNTASLTISGLQAEDEADYYCQSYDHLLHVVFGGGTKLTVLG
modifications: SMCC-DM1 on primary amines, sites not stated
B8: NOV0691-SMCC-DM1 (antibody, human IgG1, lambda, V domains shown)
VH: QVQLVESGGGLVKPGGSLRLSCAASGFTFSSYALNWVRQAPGKGLEWVGRIKSKTYGGSTDYAAPVKGRFTISRDDSKNTLYLQMNSLKTEDTAVYYCARDRGGYVGFDSWGQGTLVTVSS
VL: DIALTQPASVSGSPGQSITISCTGTSSDVGRYNFVSWYQQHPGKAPKLMIYRVSNRPSGVSNRFSGSKSGNTASLTISGLQAEDEADYYCQSWTTYSNVVFGGGTKLTVLG
modifications: SMCC-DM1 on primary amines, sites not stated
B9: NOV0693-SMCC-DM1 (antibody, human IgG1, kappa, V domains shown)
VH: QVQLLESGGGLVQPGGSLRLSCAASGFTFSSYALHWVRQAPGKGLEWVSYIFYDSSSTYYADSVKGRFTISRDNSKNTLYLQMNSLRAEDTAVYYCARFLYSAYGVANWGQGTLVTVSS
VL: DIQMTQSPSSLSASVGDRVTITCRASQSISFYLAWYQQKPGKAPKLLIYGASTLQSGVPSRFSGSGSGTDFTLTISSLQPEDFATYYCHQYSYWLRTFGQGTKVEIKR
modifications: SMCC-DM1 on primary amines, sites not stated
B10: NOV0690-SMCC-DM1 (antibody, human IgG1, lambda, V domains shown)
VH: QVQLLESGGGLVQPGGSLRLSCAASGFTFSDHAIDWVRQAPGKGLEWVSVIAGDGSITYYADSVKGRFTISRDNSKNTLYLQMNSLRAEDTAVYYCARDTGVYREYMDVWGQGTLVTVSS
VL: DIELTQPPSVSVSPGQTASITCSGDAIGTKFAHWYQQKPGQAPVLVIYYDHERPSGIPERFSGSNSGNTATLTISGTQAEDEADYYCYSRASSNLVFGGGTKLTVLG
modifications: SMCC-DM1 on primary amines, sites not stated
B11: NOV0695-SMCC-DM1 (antibody, human IgG1, kappa, V domains shown)
VH: QVQLQQSGPGLVKPSQTLSLTCAISGDSVSSNSAAWNWIRQSPSRGLEWLGRIYYRSKWYNDYAVSVKSRITINPDTSKNQFSLQLNSVTPEDTAVYYCARERSYRDYFDYWGQGTLVTVSS
VL: DIQMTQSPSSLSASVGDRVTITCRASQGIFTYLNWYQQKPGKAPKLLISAASTLQSGVPSRFSGSGSGTDFTLTISSLQPEDFATYYCQQYYSTSLTFGQGTKVEIKR
modifications: SMCC-DM1 on primary amines, sites not stated
B12: NOV0692-SMCC-DM1 (antibody, human IgG1, lambda, V domains shown)
VH: QVQLVESGGGLVKPGGSLRLSCAASGFTFSRYWMDWVRQAPGKGLEWVGRIKSKANGGITDYAAPVKGRFTISRDDSKNTLYLQMNSLKTEDTAVYYCARGMTFLGIWGQGTLVTVSS
VL: DIELTQPPSVSVSPGQTASITCSGDSIGSKYAQWYQQKPGQAPVLVIYYNSERPSGIPERFSGSNSGNTATLTISGTQAEDEADYYCQSWDGQSTIRVFGGGTKLTVLG
modifications: SMCC-DM1 on primary amines, sites not stated

In the assay the target is T1, human CDH6 on cells. The assay is described as follows: cell-based or functional assay.
In the case of B1, the “percent inhibition at 1.22 nM ADC, JHOS4 cells” value (“percent inhibition … JHOS4 cells” for short) was found to be 40.4%; the “percent inhibition at 1.22 nM ADC, KNS42 cells” value (from here on “percent inhibition … KNS42 cells”) is -13.3%; the “percent inhibition at 1.22 nM ADC, NCIH661 cells” value is -3.15%; the “percent inhibition at 1.22 nM ADC, OVCAR3 cells” value was found to be 68.6%. The “percent inhibition at 1.22 nM ADC, SNU8 cells” value (from here on “percent inhibition … SNU8 cells”) was determined as 6.4%.

As for B2, the “percent inhibition … JHOS4 cells” value was -14.7%; the “percent inhibition … KNS42 cells” value was -14.7%; the “percent inhibition at 1.22 nM ADC, NCIH661 cells” value is 2.08%; the “percent inhibition at 1.22 nM ADC, OVCAR3 cells” value is -20.6%. Besides, the “percent inhibition … SNU8 cells” value was -0.1%.

For the molecule B3, the “percent inhibition … JHOS4 cells” value came out at 3.63%; the “percent inhibition … KNS42 cells” value was -3.11%; the “percent inhibition at 1.22 nM ADC, NCIH661 cells” value is -0.53%; the “percent inhibition at 1.22 nM ADC, OVCAR3 cells” value was determined as 7.21%. For the same molecule, the “percent inhibition … SNU8 cells” value is 10.3%.

As for B4, the “percent inhibition … JHOS4 cells” value was 33.9%; the “percent inhibition … KNS42 cells” value worked out at 23.8%; the “percent inhibition at 1.22 nM ADC, NCIH661 cells” value amounted to 16.4%; the “percent inhibition at 1.22 nM ADC, OVCAR3 cells” value is 61.8%. The “percent inhibition … SNU8 cells” value came out at 10.8%.

With B5, the “percent inhibition … JHOS4 cells” value is -11.9%; the “percent inhibition … KNS42 cells” value was -6.82%; the “percent inhibition at 1.22 nM ADC, NCIH661 cells” value worked out at 3.9%; the “percent inhibition at 1.22 nM ADC, OVCAR3 cells” value was -10.3%. Further, the “percent inhibition … SNU8 cells” value is -1.42%.

As to B6, the “percent inhibition … JHOS4 cells” value was -27.9%; the “percent inhibition … KNS42 cells” value is -18.6%; the “percent inhibition at 1.22 nM ADC, NCIH661 cells” value worked out at 5.14%; the “percent inhibition at 1.22 nM ADC, OVCAR3 cells” value is -30%. Also, the “percent inhibition … SNU8 cells” value was -15.6%.

With B7, the “percent inhibition … JHOS4 cells” value is -23%; the “percent inhibition … KNS42 cells” value is -12.3%; the “percent inhibition at 1.22 nM ADC, NCIH661 cells” value is -6.14%; the “percent inhibition at 1.22 nM ADC, OVCAR3 cells” value was -16.2%. For the same molecule, the “percent inhibition … SNU8 cells” value was -10.9%.

B8: the “percent inhibition … JHOS4 cells” value is -14.4%; the “percent inhibition … KNS42 cells” value was -9.23%; the “percent inhibition at 1.22 nM ADC, NCIH661 cells” value was -10.5%; the “percent inhibition at 1.22 nM ADC, OVCAR3 cells” value is -1.5%. For the same molecule, the “percent inhibition … SNU8 cells” value was -2.56%.

For the molecule B9, the “percent inhibition … JHOS4 cells” value was found to be 58.1%; the “percent inhibition … KNS42 cells” value was determined as 15.2%; the “percent inhibition at 1.22 nM ADC, NCIH661 cells” value came out at 25.9%; the “percent inhibition at 1.22 nM ADC, OVCAR3 cells” value was 85.7%. Also, the “percent inhibition … SNU8 cells” value stood at 35.6%.

Regarding B10, the “percent inhibition … JHOS4 cells” value was determined as 51%; the “percent inhibition … KNS42 cells” value is 56.8%; the “percent inhibition at 1.22 nM ADC, NCIH661 cells” value worked out at 14.6%; the “percent inhibition at 1.22 nM ADC, OVCAR3 cells” value was found to be 84.8%. Besides, the “percent inhibition … SNU8 cells” value came to 18.4%.

In the case of B11, the “percent inhibition … JHOS4 cells” value was 66.9%; the “percent inhibition … KNS42 cells” value was found to be 66.3%; the “percent inhibition at 1.22 nM ADC, NCIH661 cells” value was determined as 18.7%; the “percent inhibition at 1.22 nM ADC, OVCAR3 cells” value was 89%. For the same molecule, the “percent inhibition … SNU8 cells” value was 21.6%.

Turning to B12, the “percent inhibition … JHOS4 cells” value stood at 62.3%; the “percent inhibition … KNS42 cells” value came out at 57.3%; the “percent inhibition at 1.22 nM ADC, NCIH661 cells” value is 14.8%; the “percent inhibition at 1.22 nM ADC, OVCAR3 cells” value was determined as 88%. Also, the “percent inhibition … SNU8 cells” value amounted to 15.7%.
